Biological target: T1, Snu17 of the RES complex purified from yeast (S. cerevisiae (endogenous in the …, UniProt P40565 1-148))
T1 sequence (looked up): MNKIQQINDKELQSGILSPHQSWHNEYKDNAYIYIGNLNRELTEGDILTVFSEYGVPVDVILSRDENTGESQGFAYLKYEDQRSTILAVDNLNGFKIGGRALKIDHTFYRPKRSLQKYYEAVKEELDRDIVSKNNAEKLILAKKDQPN
Experiment: SEC

B1: Bud13 of the RES complex purified from yeast (natural protein, UniProt P46947 1-266, looked up)
chain: MALHQYLSETYGPTKPKNKTKKKKKESKSDANSDKTSLIVKERLSTLQQEQEKSGVASFSKFDKQKSKNIWKNLETNELSHAITHPSASSITGNESKNDLKEIRAQEPLVTVADKSKTRKTIYRDAQGHKIQEDSKIDDSSFSRSKYEDEKAAEREQYLKNLNMGDVQKLGINVDAHDKKKNQTASSLTIEDPAITFTHDKERTVKTSLLGRKLYDKPAPENRFAIMPGSRWDGVHRSNGFEEKWFAKQNEINEKKVQSYTLQEDY
For B1, the “stoichiometry N” value was 1.

B2: Pml1 of the RES complex purified from yeast (natural protein, UniProt Q07930 1-204, looked up)
chain: MFHRRKRPYNTRNYGHDDKKFKSQYIDIMPDFSPSGLLELESNNKEGIALKHVEPQDAISPDNYMDMLGLEARDRTMYELVIYRKNDKDKGPWKRYDLNGRSCYLVGRELGHSLDTDLDDRTEIVVADIGIPEETSSKQHCVIQFRNVRGILKCYVMDLDSSNGTCLNNVVIPGARYIELRSGDVLTLSEFEEDNDYELIFMNV
B2 was tested, and the “stoichiometry N” value was 1.

Reference: PMC2615620 (Nucleic Acids Research, 2008)
